Assay [1] deals with Calnexin (Canx1) (mouse) (UniProt P35564). Kind of assay: control pulldown (background; control not described), mass spectrometry of eluted proteins.
Assay [2] concerns the target Dolichyl-diphosphooligosaccharide--protein glycosyltransferase SU 1 (Rpn1) (mouse) (UniProt Q91YQ5). The assay is described as above.
Assay [3] has as its target Guanine nucleotide-binding protein G(i) subunit alpha-2 (Gnai2) (mouse) (UniProt P08752). The description is as above.
Assay [4] concerns the target LYRIC (Mtdh, Metadherin) (mouse) (UniProt Q80WJ7). The assay is described as above.
Chain of UniProt Q80WJ7 (Q80WJ7 whole entry): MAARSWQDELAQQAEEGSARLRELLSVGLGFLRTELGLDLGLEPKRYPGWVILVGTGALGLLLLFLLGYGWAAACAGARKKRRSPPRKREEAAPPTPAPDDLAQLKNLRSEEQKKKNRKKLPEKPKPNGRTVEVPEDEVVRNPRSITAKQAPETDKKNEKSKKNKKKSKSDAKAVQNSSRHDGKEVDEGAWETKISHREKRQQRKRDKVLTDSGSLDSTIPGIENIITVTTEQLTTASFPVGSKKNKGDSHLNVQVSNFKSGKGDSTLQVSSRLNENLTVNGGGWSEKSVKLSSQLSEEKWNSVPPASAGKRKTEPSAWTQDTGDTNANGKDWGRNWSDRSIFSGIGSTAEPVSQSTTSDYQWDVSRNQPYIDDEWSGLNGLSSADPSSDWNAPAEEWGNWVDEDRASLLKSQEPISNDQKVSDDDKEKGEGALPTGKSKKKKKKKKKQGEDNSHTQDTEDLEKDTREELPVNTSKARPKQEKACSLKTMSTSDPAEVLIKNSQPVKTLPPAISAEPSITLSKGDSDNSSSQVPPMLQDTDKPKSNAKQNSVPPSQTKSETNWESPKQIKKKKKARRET
The target of assay [5] is Neurabin-1 (Ppp1r9a) (mouse) (UniProt Q7TN74). The assay is described as above.
Chain of UniProt Q7TN74 (Q7TN74 entry or part of it): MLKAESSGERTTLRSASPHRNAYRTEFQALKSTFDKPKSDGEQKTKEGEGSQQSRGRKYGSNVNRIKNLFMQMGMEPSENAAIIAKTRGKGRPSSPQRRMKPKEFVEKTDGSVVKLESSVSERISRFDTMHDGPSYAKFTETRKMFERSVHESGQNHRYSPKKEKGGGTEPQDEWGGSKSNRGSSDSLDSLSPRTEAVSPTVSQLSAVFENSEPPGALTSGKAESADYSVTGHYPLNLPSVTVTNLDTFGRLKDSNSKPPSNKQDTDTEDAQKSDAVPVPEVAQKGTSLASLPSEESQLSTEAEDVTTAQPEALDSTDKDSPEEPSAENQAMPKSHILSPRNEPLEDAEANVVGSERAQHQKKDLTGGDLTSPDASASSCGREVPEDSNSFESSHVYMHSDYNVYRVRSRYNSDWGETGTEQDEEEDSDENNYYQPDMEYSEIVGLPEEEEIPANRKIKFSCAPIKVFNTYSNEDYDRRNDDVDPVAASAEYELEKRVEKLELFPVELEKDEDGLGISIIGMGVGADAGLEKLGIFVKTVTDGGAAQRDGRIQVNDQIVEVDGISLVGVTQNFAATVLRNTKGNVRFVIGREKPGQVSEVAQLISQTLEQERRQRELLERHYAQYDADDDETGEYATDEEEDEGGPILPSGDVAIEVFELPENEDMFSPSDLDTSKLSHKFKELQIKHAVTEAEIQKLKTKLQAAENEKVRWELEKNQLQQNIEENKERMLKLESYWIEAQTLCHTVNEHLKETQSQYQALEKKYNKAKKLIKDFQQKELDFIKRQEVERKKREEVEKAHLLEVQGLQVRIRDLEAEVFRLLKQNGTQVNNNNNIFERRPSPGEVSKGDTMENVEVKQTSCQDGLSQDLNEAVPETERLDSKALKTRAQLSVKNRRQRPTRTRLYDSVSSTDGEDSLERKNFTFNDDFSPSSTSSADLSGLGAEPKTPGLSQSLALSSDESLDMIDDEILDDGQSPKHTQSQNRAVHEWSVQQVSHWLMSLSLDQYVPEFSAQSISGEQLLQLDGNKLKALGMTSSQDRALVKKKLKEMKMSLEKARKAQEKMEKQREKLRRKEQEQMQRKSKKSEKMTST
Assay [6] deals with Neurabin-2, Spinophilin (Ppp1r9b) (mouse) (UniProt Q6R891). The assay is described as above.
Chain of UniProt Q6R891 (Q6R891 whole entry): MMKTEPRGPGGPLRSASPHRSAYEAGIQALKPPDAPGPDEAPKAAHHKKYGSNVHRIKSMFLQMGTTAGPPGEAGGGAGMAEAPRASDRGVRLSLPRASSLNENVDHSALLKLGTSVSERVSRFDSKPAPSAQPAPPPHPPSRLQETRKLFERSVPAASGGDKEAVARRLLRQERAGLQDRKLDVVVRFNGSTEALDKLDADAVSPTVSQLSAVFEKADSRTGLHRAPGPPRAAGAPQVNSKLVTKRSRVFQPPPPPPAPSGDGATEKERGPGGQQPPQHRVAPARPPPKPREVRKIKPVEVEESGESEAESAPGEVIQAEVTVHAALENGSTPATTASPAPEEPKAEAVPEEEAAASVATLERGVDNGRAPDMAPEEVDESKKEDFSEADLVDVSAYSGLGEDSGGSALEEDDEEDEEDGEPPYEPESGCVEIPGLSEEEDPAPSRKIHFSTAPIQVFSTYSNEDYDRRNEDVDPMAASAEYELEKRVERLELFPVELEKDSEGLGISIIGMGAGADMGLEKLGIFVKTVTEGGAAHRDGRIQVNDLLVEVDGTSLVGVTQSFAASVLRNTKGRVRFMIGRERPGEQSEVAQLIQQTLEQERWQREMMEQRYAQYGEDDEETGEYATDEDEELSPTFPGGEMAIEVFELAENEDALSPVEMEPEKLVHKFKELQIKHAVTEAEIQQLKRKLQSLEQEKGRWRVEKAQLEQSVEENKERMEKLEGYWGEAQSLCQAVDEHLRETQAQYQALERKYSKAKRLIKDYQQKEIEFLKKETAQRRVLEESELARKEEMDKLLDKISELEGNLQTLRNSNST
The target of assay [7] is Solute carrier family 2, facilitated glucose transporter member 3 (Slc2a3) (mouse) (UniProt P32037). The assay is described as above.
Chain of UniProt P32037 (P32037 whole entry): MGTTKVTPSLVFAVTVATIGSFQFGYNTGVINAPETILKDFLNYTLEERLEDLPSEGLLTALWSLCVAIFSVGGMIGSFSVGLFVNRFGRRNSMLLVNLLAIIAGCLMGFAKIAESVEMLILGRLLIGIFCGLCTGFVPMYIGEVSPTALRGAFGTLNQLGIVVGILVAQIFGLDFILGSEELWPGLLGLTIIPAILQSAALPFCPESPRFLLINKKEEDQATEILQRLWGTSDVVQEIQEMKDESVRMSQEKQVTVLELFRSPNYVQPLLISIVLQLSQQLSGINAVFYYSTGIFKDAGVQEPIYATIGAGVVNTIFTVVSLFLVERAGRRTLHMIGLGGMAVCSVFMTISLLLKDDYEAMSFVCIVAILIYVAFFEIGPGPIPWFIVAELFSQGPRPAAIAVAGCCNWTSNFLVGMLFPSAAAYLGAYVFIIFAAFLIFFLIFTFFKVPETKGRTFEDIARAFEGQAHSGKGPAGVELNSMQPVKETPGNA
Assay [8] deals with Calnexin (Canx1) (mouse) (UniProt P35564). The assay is described as follows: anti-HA pulldown of tagged Gpr107 from whole cell lysate, mass spectrometry of eluted proteins.
Assay [9] addresses Dolichyl-diphosphooligosaccharide--protein glycosyltransferase SU 1 (Rpn1) (mouse) (UniProt Q91YQ5). Described as above.
Assay [10] deals with Guanine nucleotide-binding protein G(i) subunit alpha-2 (Gnai2) (mouse) (UniProt P08752). The assay is described as above.
Assay [11] deals with LYRIC (Mtdh, Metadherin) (mouse) (UniProt Q80WJ7). The assay is described as above.
Assay [12] concerns the target Neurabin-1 (Ppp1r9a) (mouse) (UniProt Q7TN74). Described as above.
Assay [13] has as its target Neurabin-2, Spinophilin (Ppp1r9b) (mouse) (UniProt Q6R891). Described as above.
Assay [14] addresses Solute carrier family 2, facilitated glucose transporter member 3 (Slc2a3) (mouse) (UniProt P32037). Described as above.

Chain of UniProt P35564 (P35564 21-591 limits assumed): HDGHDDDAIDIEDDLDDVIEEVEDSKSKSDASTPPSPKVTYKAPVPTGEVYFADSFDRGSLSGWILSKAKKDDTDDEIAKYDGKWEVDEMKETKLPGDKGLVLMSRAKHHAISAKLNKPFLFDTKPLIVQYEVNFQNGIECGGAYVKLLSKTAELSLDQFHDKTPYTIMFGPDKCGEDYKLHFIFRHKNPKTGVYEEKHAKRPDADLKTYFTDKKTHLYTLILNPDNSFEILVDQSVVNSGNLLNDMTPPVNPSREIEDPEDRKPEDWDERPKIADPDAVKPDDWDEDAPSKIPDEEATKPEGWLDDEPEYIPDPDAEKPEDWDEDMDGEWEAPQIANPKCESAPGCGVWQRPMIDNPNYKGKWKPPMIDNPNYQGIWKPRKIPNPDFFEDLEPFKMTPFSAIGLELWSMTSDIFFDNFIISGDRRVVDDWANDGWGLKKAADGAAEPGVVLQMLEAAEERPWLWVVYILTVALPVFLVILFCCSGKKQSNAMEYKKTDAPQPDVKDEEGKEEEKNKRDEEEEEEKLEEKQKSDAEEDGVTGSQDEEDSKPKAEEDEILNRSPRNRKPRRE
Chain of UniProt P08752 (P08752 2-355 limits assumed): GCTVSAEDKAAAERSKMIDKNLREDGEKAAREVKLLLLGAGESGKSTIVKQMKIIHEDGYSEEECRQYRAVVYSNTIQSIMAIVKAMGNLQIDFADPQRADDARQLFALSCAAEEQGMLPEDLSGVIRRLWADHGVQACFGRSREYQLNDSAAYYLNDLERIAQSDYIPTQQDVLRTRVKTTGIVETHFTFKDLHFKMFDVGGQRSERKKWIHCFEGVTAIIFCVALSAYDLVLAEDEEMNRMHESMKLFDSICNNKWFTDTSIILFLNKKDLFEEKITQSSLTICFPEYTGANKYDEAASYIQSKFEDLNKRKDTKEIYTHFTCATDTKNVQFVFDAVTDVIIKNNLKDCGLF
Chain of UniProt Q91YQ5 (Q91YQ5 26-608 limits assumed): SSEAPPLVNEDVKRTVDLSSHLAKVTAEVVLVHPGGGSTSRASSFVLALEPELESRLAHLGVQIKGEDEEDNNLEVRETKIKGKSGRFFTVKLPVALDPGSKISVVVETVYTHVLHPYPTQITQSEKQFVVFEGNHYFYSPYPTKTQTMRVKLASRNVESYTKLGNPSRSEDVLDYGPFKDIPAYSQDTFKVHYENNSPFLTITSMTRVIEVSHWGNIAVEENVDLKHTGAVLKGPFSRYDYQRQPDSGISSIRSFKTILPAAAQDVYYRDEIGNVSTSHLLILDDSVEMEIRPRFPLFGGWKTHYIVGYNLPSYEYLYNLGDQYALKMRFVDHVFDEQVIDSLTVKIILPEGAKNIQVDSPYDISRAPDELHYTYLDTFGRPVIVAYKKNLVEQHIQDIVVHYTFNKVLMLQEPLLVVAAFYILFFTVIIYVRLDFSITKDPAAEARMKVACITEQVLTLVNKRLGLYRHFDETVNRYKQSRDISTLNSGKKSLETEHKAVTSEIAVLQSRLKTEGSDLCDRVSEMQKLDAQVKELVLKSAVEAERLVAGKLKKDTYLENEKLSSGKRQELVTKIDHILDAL

“C-terminally tagged (mCherry, Ha, myc) version of Gpr107 (G protein coupled receptor 107) (from UniProt Q8BUV8 34-551)”: the peptides control with Calnexin (Canx1) (mouse) [1] turned out to be 3 peptides; in assay [2] it was 3 peptides; in [3] it was 0 peptides; in assay [4], 0 peptides; in assay [5], 0 peptides; in assay [6] it was 8 peptides. Besides, in assay [7], the peptides control stood at 0 peptides. For the same substance, the peptides sample with Calnexin (Canx1) (mouse) [8] was 7 peptides; in assay [9] it was 8 peptides; in assay [10] it was 19 peptides; in assay [11], 46 peptides; in [12], 13 peptides; in [13], 136 peptides. The peptides sample in assay [14] came to 5 peptides.

The values are drawn from patent US20140342369A1.
